Holding throughout (assay): cell-based or functional assay
Assay [1] concerns the target human GLP-1 receptor (human, UniProt P43220 24-463).
The target of assay [2] is T1, human GIP receptor (human, UniProt P48546 22-466).
T1 sequence (looked up): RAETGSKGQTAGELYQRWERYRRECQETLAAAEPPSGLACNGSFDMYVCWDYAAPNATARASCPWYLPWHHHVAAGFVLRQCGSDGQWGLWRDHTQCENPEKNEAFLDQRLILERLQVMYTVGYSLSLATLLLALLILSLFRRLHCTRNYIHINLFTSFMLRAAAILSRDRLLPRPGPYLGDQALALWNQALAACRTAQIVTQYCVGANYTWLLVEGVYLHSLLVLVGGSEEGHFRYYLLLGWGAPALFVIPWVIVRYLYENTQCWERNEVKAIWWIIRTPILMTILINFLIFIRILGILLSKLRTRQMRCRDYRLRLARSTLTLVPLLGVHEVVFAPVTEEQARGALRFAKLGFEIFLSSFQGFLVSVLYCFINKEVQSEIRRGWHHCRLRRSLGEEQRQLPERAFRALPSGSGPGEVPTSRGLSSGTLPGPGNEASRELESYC

Assay [3] has as its target human glucagon receptor (human, UniProt P47871 26-477).

*1 amine or outer side, *2 acyl side, *3 side chain or, on linkers, in order; H or OH if unused. Where no end group is shown, it is not given here. Side-chain parts run from the residue outwards. [ ]: non-standard residue; d: D form. The star is where a group is joined. γGlu = O=C(O)[C@H](CCC(=O)[*:2])N[*:1]; Stearoyl = CCCCCCCCCCCCCCCCCC(=O)*; Palmitoyl = CCCCCCCCCCCCCCCC(=O)*; d(αMeK) = C[C@@](N)(CCCCN)C(=O)O; αMeOrn = C[C@](N)(CCCN)C(=O)O; αMeK = C[C@](N)(CCCCN)C(=O)O; Api = NC1(C(=O)O)CCNCC1; Aib = CC(C)(N)C(=O)O

Chain of human glucagon receptor (P47871 26-477): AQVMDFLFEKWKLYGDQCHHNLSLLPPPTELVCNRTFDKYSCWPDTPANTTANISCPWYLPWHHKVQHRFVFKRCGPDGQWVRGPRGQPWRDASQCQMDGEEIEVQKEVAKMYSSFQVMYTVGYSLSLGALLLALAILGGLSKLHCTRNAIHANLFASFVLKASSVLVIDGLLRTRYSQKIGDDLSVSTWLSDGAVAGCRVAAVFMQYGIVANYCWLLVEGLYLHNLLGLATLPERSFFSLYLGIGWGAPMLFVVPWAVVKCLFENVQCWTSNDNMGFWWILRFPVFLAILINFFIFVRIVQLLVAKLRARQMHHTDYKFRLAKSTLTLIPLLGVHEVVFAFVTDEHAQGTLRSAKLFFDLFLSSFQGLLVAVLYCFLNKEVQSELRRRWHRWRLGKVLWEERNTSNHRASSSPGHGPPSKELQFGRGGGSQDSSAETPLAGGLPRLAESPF

B1: SEQ ID NO: 8 (peptide)
peptide: Y[Aib]EGTFTSDLSIQK([γGlu-Palmitoyl])EERAA[Api]EFIEWLKNTGPSSGAPPPS-NH2
modifications: N-terminus assumed
SMILES: CCCCCCCCCCCCCCCC(=O)N[C@@H](CCC(=O)NCCCC[C@H](NC(=O)[C@H](CCC(N)=O)NC(=O)[C@@H](NC(=O)[C@H](CO)NC(=O)[C@H](CC(C)C)NC(=O)[C@H](CC(=O)O)NC(=O)[C@H](CO)NC(=O)[C@@H](NC(=O)[C@H](Cc1ccccc1)NC(=O)[C@@H](NC(=O)CNC(=O)[C@H](CCC(=O)O)NC(=O)C(C)(C)NC(=O)[C@@H](N)Cc1ccc(O)cc1)[C@@H](C)O)[C@@H](C)O)[C@@H](C)CC)C(=O)N[C@@H](CCC(=O)O)C(=O)N[C@@H](CCC(=O)O)C(=O)N[C@@H](CCCNC(=N)N)C(=O)N[C@@H](C)C(=O)N[C@@H](C)C(=O)NC1(C(=O)N[C@@H](CCC(=O)O)C(=O)N[C@@H](Cc2ccccc2)C(=O)N[C@H](C(=O)N[C@@H](CCC(=O)O)C(=O)N[C@@H](Cc2c[nH]c3ccccc23)C(=O)N[C@@H](CC(C)C)C(=O)N[C@@H](CCCCN)C(=O)N[C@@H](CC(N)=O)C(=O)N[C@H](C(=O)NCC(=O)N2CCC[C@H]2C(=O)N[C@@H](CO)C(=O)N[C@@H](CO)C(=O)NCC(=O)N[C@@H](C)C(=O)N2CCC[C@H]2C(=O)N2CCC[C@H]2C(=O)N2CCC[C@H]2C(=O)N[C@@H](CO)C(N)=O)[C@@H](C)O)[C@@H](C)CC)CCNCC1)C(=O)O
Turning to B1, the “EC50 hGLP-1 R [pM] (cAMP formation)” value in assay [1] came to 4.7 pM. Besides, the “EC50 hGIP R [pM] (cAMP formation)” value in assay [2] was 16.3 pM. Also, the “EC50 hGLUC R [pM] (cAMP formation)” value in assay [3] worked out at 34700 pM.

B2: SEQ ID NO: 10 (peptide)
peptide: Y[Aib]EGTFTSDLSIQK([γGlu-Palmitoyl])EERAA[αMeOrn]EFIEWLKNTGPSSGAPPPS-NH2
modifications: N-terminus assumed
SMILES: CCCCCCCCCCCCCCCC(=O)N[C@@H](CCC(=O)NCCCC[C@H](NC(=O)[C@H](CCC(N)=O)NC(=O)[C@@H](NC(=O)[C@H](CO)NC(=O)[C@H](CC(C)C)NC(=O)[C@H](CC(=O)O)NC(=O)[C@H](CO)NC(=O)[C@@H](NC(=O)[C@H](Cc1ccccc1)NC(=O)[C@@H](NC(=O)CNC(=O)[C@H](CCC(=O)O)NC(=O)C(C)(C)NC(=O)[C@@H](N)Cc1ccc(O)cc1)[C@@H](C)O)[C@@H](C)O)[C@@H](C)CC)C(=O)N[C@@H](CCC(=O)O)C(=O)N[C@@H](CCC(=O)O)C(=O)N[C@@H](CCCNC(=N)N)C(=O)N[C@@H](C)C(=O)N[C@@H](C)C(=O)N[C@@](C)(CCCN)C(=O)N[C@@H](CCC(=O)O)C(=O)N[C@@H](Cc1ccccc1)C(=O)N[C@H](C(=O)N[C@@H](CCC(=O)O)C(=O)N[C@@H](Cc1c[nH]c2ccccc12)C(=O)N[C@@H](CC(C)C)C(=O)N[C@@H](CCCCN)C(=O)N[C@@H](CC(N)=O)C(=O)N[C@H](C(=O)NCC(=O)N1CCC[C@H]1C(=O)N[C@@H](CO)C(=O)N[C@@H](CO)C(=O)NCC(=O)N[C@@H](C)C(=O)N1CCC[C@H]1C(=O)N1CCC[C@H]1C(=O)N1CCC[C@H]1C(=O)N[C@@H](CO)C(N)=O)[C@@H](C)O)[C@@H](C)CC)C(=O)O
In the case of B2, the “EC50 hGLP-1 R [pM] (cAMP formation)” value in assay [1] was found to be 4.9 pM. Also, in assay [2], the “EC50 hGIP R [pM] (cAMP formation)” value stood at 7.1 pM. Moreover, the “EC50 hGLUC R [pM] (cAMP formation)” value in assay [3] turned out to be 10400 pM.

B3: SEQ ID NO: 9 (peptide)
peptide: Y[Aib]EGTFTSDLSIQK([γGlu-Palmitoyl])EERAA[d(αMeK)]EFIEWLKNTGPSSGAPPPS-NH2
modifications: N-terminus assumed
SMILES: CCCCCCCCCCCCCCCC(=O)N[C@@H](CCC(=O)NCCCC[C@H](NC(=O)[C@H](CCC(N)=O)NC(=O)[C@@H](NC(=O)[C@H](CO)NC(=O)[C@H](CC(C)C)NC(=O)[C@H](CC(=O)O)NC(=O)[C@H](CO)NC(=O)[C@@H](NC(=O)[C@H](Cc1ccccc1)NC(=O)[C@@H](NC(=O)CNC(=O)[C@H](CCC(=O)O)NC(=O)C(C)(C)NC(=O)[C@@H](N)Cc1ccc(O)cc1)[C@@H](C)O)[C@@H](C)O)[C@@H](C)CC)C(=O)N[C@@H](CCC(=O)O)C(=O)N[C@@H](CCC(=O)O)C(=O)N[C@@H](CCCNC(=N)N)C(=O)N[C@@H](C)C(=O)N[C@@H](C)C(=O)N[C@](C)(CCCCN)C(=O)N[C@@H](CCC(=O)O)C(=O)N[C@@H](Cc1ccccc1)C(=O)N[C@H](C(=O)N[C@@H](CCC(=O)O)C(=O)N[C@@H](Cc1c[nH]c2ccccc12)C(=O)N[C@@H](CC(C)C)C(=O)N[C@@H](CCCCN)C(=O)N[C@@H](CC(N)=O)C(=O)N[C@H](C(=O)NCC(=O)N1CCC[C@H]1C(=O)N[C@@H](CO)C(=O)N[C@@H](CO)C(=O)NCC(=O)N[C@@H](C)C(=O)N1CCC[C@H]1C(=O)N1CCC[C@H]1C(=O)N1CCC[C@H]1C(=O)N[C@@H](CO)C(N)=O)[C@@H](C)O)[C@@H](C)CC)C(=O)O
As to B3, the “EC50 hGLP-1 R [pM] (cAMP formation)” value in assay [1] is 13.5 pM. In assay [2], the “EC50 hGIP R [pM] (cAMP formation)” value was 93.2 pM. In addition, in assay [3], the “EC50 hGLUC R [pM] (cAMP formation)” value was over 1e+06 pM.

B4: SEQ ID NO: 12 (peptide)
peptide: Y[Aib]QGTFTSDLSKQK([γGlu-Stearoyl])DEQRA[αMeK]EFIEWLKSGGPSSGAPPPS-NH2
modifications: N-terminus assumed
SMILES: CCCCCCCCCCCCCCCCCC(=O)N[C@@H](CCC(=O)NCCCC[C@H](NC(=O)[C@H](CCC(N)=O)NC(=O)[C@H](CCCCN)NC(=O)[C@H](CO)NC(=O)[C@H](CC(C)C)NC(=O)[C@H](CC(=O)O)NC(=O)[C@H](CO)NC(=O)[C@@H](NC(=O)[C@H](Cc1ccccc1)NC(=O)[C@@H](NC(=O)CNC(=O)[C@H](CCC(N)=O)NC(=O)C(C)(C)NC(=O)[C@@H](N)Cc1ccc(O)cc1)[C@@H](C)O)[C@@H](C)O)C(=O)N[C@@H](CC(=O)O)C(=O)N[C@@H](CCC(=O)O)C(=O)N[C@@H](CCC(N)=O)C(=O)N[C@@H](CCCNC(=N)N)C(=O)N[C@@H](C)C(=O)N[C@@](C)(CCCCN)C(=O)N[C@@H](CCC(=O)O)C(=O)N[C@@H](Cc1ccccc1)C(=O)N[C@H](C(=O)N[C@@H](CCC(=O)O)C(=O)N[C@@H](Cc1c[nH]c2ccccc12)C(=O)N[C@@H](CC(C)C)C(=O)N[C@@H](CCCCN)C(=O)N[C@@H](CO)C(=O)NCC(=O)NCC(=O)N1CCC[C@H]1C(=O)N[C@@H](CO)C(=O)N[C@@H](CO)C(=O)NCC(=O)N[C@@H](C)C(=O)N1CCC[C@H]1C(=O)N1CCC[C@H]1C(=O)N1CCC[C@H]1C(=O)N[C@@H](CO)C(N)=O)[C@@H](C)CC)C(=O)O
As for B4, in assay [1], the “EC50 hGLP-1 R [pM] (cAMP formation)” value stood at 11.6 pM. Besides, in assay [2], the “EC50 hGIP R [pM] (cAMP formation)” value came out at 27 pM.

B5: SEQ ID NO: 13 (peptide)
peptide: Y[Aib]QGTFTSDLSIQK([γGlu-Stearoyl])DEQRA[d(αMeK)]EFIEWLKSGGPSSGAPPPS-NH2
modifications: N-terminus assumed
SMILES: CCCCCCCCCCCCCCCCCC(=O)N[C@@H](CCC(=O)NCCCC[C@H](NC(=O)[C@H](CCC(N)=O)NC(=O)[C@@H](NC(=O)[C@H](CO)NC(=O)[C@H](CC(C)C)NC(=O)[C@H](CC(=O)O)NC(=O)[C@H](CO)NC(=O)[C@@H](NC(=O)[C@H](Cc1ccccc1)NC(=O)[C@@H](NC(=O)CNC(=O)[C@H](CCC(N)=O)NC(=O)C(C)(C)NC(=O)[C@@H](N)Cc1ccc(O)cc1)[C@@H](C)O)[C@@H](C)O)[C@@H](C)CC)C(=O)N[C@@H](CC(=O)O)C(=O)N[C@@H](CCC(=O)O)C(=O)N[C@@H](CCC(N)=O)C(=O)N[C@@H](CCCNC(=N)N)C(=O)N[C@@H](C)C(=O)N[C@](C)(CCCCN)C(=O)N[C@@H](CCC(=O)O)C(=O)N[C@@H](Cc1ccccc1)C(=O)N[C@H](C(=O)N[C@@H](CCC(=O)O)C(=O)N[C@@H](Cc1c[nH]c2ccccc12)C(=O)N[C@@H](CC(C)C)C(=O)N[C@@H](CCCCN)C(=O)N[C@@H](CO)C(=O)NCC(=O)NCC(=O)N1CCC[C@H]1C(=O)N[C@@H](CO)C(=O)N[C@@H](CO)C(=O)NCC(=O)N[C@@H](C)C(=O)N1CCC[C@H]1C(=O)N1CCC[C@H]1C(=O)N1CCC[C@H]1C(=O)N[C@@H](CO)C(N)=O)[C@@H](C)CC)C(=O)O
Turning to B5, the “EC50 hGLP-1 R [pM] (cAMP formation)” value in assay [1] amounted to 13.6 pM. Besides, the “EC50 hGIP R [pM] (cAMP formation)” value in assay [2] came out at 33.1 pM. Further, the “EC50 hGLUC R [pM] (cAMP formation)” value in assay [3] is 202 pM.

B6: SEQ ID NO: 14 (peptide)
peptide: Y[Aib]EGTFTSDLSIQK([γGlu-Stearoyl])DERAA[αMeK]EFIEWLKNTGPSSGAPPPS-NH2
modifications: N-terminus assumed
SMILES: CCCCCCCCCCCCCCCCCC(=O)N[C@@H](CCC(=O)NCCCC[C@H](NC(=O)[C@H](CCC(N)=O)NC(=O)[C@@H](NC(=O)[C@H](CO)NC(=O)[C@H](CC(C)C)NC(=O)[C@H](CC(=O)O)NC(=O)[C@H](CO)NC(=O)[C@@H](NC(=O)[C@H](Cc1ccccc1)NC(=O)[C@@H](NC(=O)CNC(=O)[C@H](CCC(=O)O)NC(=O)C(C)(C)NC(=O)[C@@H](N)Cc1ccc(O)cc1)[C@@H](C)O)[C@@H](C)O)[C@@H](C)CC)C(=O)N[C@@H](CC(=O)O)C(=O)N[C@@H](CCC(=O)O)C(=O)N[C@@H](CCCNC(=N)N)C(=O)N[C@@H](C)C(=O)N[C@@H](C)C(=O)N[C@@](C)(CCCCN)C(=O)N[C@@H](CCC(=O)O)C(=O)N[C@@H](Cc1ccccc1)C(=O)N[C@H](C(=O)N[C@@H](CCC(=O)O)C(=O)N[C@@H](Cc1c[nH]c2ccccc12)C(=O)N[C@@H](CC(C)C)C(=O)N[C@@H](CCCCN)C(=O)N[C@@H](CC(N)=O)C(=O)N[C@H](C(=O)NCC(=O)N1CCC[C@H]1C(=O)N[C@@H](CO)C(=O)N[C@@H](CO)C(=O)NCC(=O)N[C@@H](C)C(=O)N1CCC[C@H]1C(=O)N1CCC[C@H]1C(=O)N1CCC[C@H]1C(=O)N[C@@H](CO)C(N)=O)[C@@H](C)O)[C@@H](C)CC)C(=O)O
As for B6, the “EC50 hGLP-1 R [pM] (cAMP formation)” value in assay [1] came out at 7.2 pM. For the same molecule, in assay [2], the “EC50 hGIP R [pM] (cAMP formation)” value was found to be 4.5 pM. Besides, the “EC50 hGLUC R [pM] (cAMP formation)” value in assay [3] is 4730 pM.

Source of the values: US20140221281A1 (Sanofi, published 2014).
